Data: PMC8461307 (2021)

Biological target: purified C3b (UniProt P01024 23-667; P01024 749-1663)
Test: SPR

purified C3b, sequence (P01024 23-667, chain 1 of 2): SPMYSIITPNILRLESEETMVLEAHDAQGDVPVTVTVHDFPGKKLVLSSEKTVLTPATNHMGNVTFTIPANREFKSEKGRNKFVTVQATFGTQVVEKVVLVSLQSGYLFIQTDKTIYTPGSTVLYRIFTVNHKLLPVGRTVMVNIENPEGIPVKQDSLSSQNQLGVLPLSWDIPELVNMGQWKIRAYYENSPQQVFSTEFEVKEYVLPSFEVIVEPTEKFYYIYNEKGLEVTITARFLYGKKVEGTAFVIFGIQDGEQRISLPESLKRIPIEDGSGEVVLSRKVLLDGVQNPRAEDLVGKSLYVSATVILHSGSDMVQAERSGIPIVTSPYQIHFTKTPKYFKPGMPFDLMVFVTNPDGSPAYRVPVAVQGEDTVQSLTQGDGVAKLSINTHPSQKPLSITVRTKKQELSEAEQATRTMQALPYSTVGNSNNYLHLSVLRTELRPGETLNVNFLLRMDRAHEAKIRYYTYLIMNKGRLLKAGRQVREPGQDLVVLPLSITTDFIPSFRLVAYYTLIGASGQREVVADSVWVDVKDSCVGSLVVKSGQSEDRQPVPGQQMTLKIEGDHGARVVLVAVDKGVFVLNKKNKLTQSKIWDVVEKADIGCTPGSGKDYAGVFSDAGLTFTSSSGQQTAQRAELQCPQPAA
purified C3b, sequence (P01024 749-1663, chain 2 of 2): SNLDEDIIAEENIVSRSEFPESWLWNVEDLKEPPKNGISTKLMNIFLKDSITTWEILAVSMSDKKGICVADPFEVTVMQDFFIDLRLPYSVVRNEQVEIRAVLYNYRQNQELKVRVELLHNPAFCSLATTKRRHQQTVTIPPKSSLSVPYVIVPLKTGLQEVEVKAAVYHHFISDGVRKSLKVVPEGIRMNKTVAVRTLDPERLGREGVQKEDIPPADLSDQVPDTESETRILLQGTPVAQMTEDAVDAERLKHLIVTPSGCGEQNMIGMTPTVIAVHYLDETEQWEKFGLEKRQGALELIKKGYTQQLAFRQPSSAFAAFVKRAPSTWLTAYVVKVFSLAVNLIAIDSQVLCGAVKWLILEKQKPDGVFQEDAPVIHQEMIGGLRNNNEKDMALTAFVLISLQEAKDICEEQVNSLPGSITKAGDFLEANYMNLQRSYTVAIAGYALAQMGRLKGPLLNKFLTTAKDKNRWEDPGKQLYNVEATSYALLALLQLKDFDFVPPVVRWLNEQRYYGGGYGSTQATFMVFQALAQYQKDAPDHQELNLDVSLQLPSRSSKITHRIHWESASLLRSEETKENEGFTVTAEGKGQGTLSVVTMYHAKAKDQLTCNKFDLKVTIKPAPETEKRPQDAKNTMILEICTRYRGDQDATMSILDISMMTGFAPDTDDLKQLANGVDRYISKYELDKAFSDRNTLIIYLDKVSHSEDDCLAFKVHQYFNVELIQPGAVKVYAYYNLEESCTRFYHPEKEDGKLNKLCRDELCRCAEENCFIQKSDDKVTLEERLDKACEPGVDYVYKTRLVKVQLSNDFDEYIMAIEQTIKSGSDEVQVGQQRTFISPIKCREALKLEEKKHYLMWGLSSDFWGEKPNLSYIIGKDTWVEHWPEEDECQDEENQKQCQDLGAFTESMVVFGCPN

koff: 0.141 s⁻¹
B1: recombinant wild-type Factor H-related protein 5 (FHR-5WT) (natural protein)
chain: EGTLCDFPKIHHGFLYDEEDYNPFSQVPTGEVFYYSCEYNFVSPSKSFWTRITCTEEGWSPTPKCLRMCSFPFVKNGHSESSGLIHLEGDTVQIICNTGYSLQNNEKNISCVERGWSTPPICSFTKGECHVPILEANVDAQPKKESYKVGDVLKFSCRKNLIRVGSDSVQCYQFGWSPNFPTCKGQVRSCGPPPQLSNGEVKEIRKEEYGHNEVVEYDCNPNFIINGPKKIQCVDGEWTTLPTCVEQVKTCGYIPELEYGYVQPSVPPYQHGVSVEVNCRNEYAMIGNNMITCINGIWTELPMCVATHQLKRCKIAGVNIKTLLKLSGKEFNHNSRIRYRCSDIFRYRHSVCINGKWNPEVDCTEKREQFCPPPPQIPNAQNMTTTVNYQDGEKVAVLCKENYLLPEAKEIVCKDGRWQSLPRCVESTAYCGPPPSINNGDTTSFPLSVYPPGSTVTYRCQSFYKLQGSVTVTCRNKQWSEPPRCLDPCVVSEENMNKNNIQLKWRNDGKLYAKTGDAVEFQCKFPHKAMISSPPFRAICQEGKFEYPICE
